B1: PRL-1 phosphatase (Drosophila melanogaster (Fruit fly)), O61722 (parent)
chain: MSITMRQKDLRPAPALIEYKGMKFLITDRPSDITINHYIMELKKNNVNTVVRVCEPSYNTDELETQGITVKDLAFEDGTFPPQQVVDEWFEVLKDKYQQNPEACVAVHCVAGLGRAPVLVALALIELGLKYEAAVEMIRDKRRGAINAKQLSFLEKYKPKARLKHKNGHKNSCSVQ

Variants of: B1
Details: with uex_drome uex

Variant | effect of a mutation on the interaction
MSITMRQKDLRPAPALIEYKGMKFLITDRPSDITINHYIMELKKNNVNTVVRVCEPSYNTDELETQGITVKDLAFEAGTFPPQQVVDEWFEVLKDKYQQNPEACVAVHSVAGLGRAPVLVALALIELGLKYEAAVEMIRDKRRGAINAKQLSFLEKYKPKARLKHKNGHKNSCSVQ [D77A;C109S] | decreasing interaction strength

From IntAct's records for PubMed 31404830
